# Measured values reported in the DeepSol protein solubility set.
# Assay: soluble on expression in E. coli; label from the status in PepcDB or PDB records
row,Sequence,soluble on expression in E. coli
1,MSLEIGILDIKGSLPLFEDFGNLPTKIITENNYKEIKDLDALIIPGGSLIESKSLNDDLKKEIINFNGYIIGICSGFQILAKKIDIGRKSSVPIIKEGLGLLDVEFSPLVCTDRVEFEVKKSIFGEGKGEGFHCHTYGNIEVVDKETKILTVSKVKKLNYKLGAEKEIISGAFKGKVFGTMVHNFLDNEFVRDNFLKHLGVTEDEKEEIFEKNKIIKDELKKRALKYRLNPKLLKENNKKDVNKKRGIILLATSSNSGKTFLTTALSSKLNGRVFVAKIGGDVRDIVPALYLLREKMTKYNSIKIGERGWVDVSKFLDYIKKSDYDYIIVEGVMGAFTAALKNISSYQIAKKLGFPVYIVSACNISGIEGAFVEAMAYYSLLKDIGIKVEGVILNKVYDWNSFNKLKSLAEKHNIKLYGVGKIANESRGLIPEVEIDYESFCRNAFNVDLEIEIPEVEINNHIKDEEDNFLERLDNWMENINEGHHHHHH,soluble
2,MASYYEILDVPRSASADDIKKAYRRKALQWHPDKNPDNKEFAEKKFKEVAEAYEVLSDKHKREIYDRYGREGLTGTGTGPSRAEAGSGGPGFTFTFRSPEEVFREFFGSGDPFAELFDDLGPFSELQNRGSRHSGPFFTFSSSFPGHSDFSSSSFSFSPGAGAFRSVSTSTTFVQGRRITTRRIMENGQERVEVEEDGQLKSVTINGVPDDLALGLELSRREQQPSVTSRSGGTQVQQTPASCPLDSDLSEDEDLQLAMAYSLSEMEAAGKKPAGGREAQHRRQGRPKAQHQDPGLGGTQEGARGEATKRSPSPEEKASRCLIL,soluble
3,NQHLTILRNVSDRKRMEKELRESELKFRKVFNGSMDGNVLFDNQYRIIDANPLASHILGLSHEEIKQHSLLDIISAYEIENLASPARQINFDEMDNEIPFLLSSGDNRKLEFSFKRNIIQ,not soluble
4,MSLTRRDFAGRSALTGAGVVLAGSVGALATAPNALASTDTDSVGAEHDGHDHHHGHGHGGVGYGPLLPDPDGILALPAGFRYEIITYSGRTKLESGEYTPSNHDGTAAFDGPRGTTLLVNNHELGGHRDDWPHPVPLTEGLVYDPAAAGGCTVVEVRRGGHVAEWVGIAGTATNCAGGSTPWGTWLTCEETEDRAGEEGMTKDHGYVFEVDPEDRRANREPKPVKALGRYAHEAVVIDPKRGHAYLTEDASGPNGLLYRWTPPEHFRHGRGRLRTLADDAGVLQAFKCFDSGGKFVDDLSRATRTGTVYGVDWVDVPDRDAQTTSVRKQFAAGEVTRARKLEGMWWADGGAYVVSSFARDESPGRPHDGQVWFYDPKRRTLTLKVLLGVNADPSADGAFDGPDNITVSPYGGLVIAEDGDGVQHLFGATDSGRTYPIARNELNLGTEDDPEYSEFTGVTFSPDGRTLYANIQTPGIMLAITGPWKRQKRR,soluble
5,MPKAEGRIFDFKGHDAIRTDFLEAIDFDGKDEYIKIETDEFSAVCPFSGLPDIGRVIIEYYPDGGKIVELKSLKYYFVSFRNVGIYQEEATKRIYEDLKNLLKTDRIRVTVIYNIRGGIKTTTQMGSLEGKKSGEVE,not soluble
6,MISILHVAARVLELRPSCDKMKLYKLCYFSQGWHLAWTGRPLFNEELQAWKYGAVSPTLRQASGLRADDDRLVTQIWSGDSSQLIDYERSVVDTVVSFYGDLESFHLSDLSHGFAWSTVRGNLPPDASCSDVIPHSLIRREFVENAWGEAPTPNAPERLPSMALDALEQAADDVAAENAETLRLLAFI,not soluble
7,ARVNAQTGAPDILTSLDEKSVSYDTVMDKYWLSQYVIARETYDWYTLQKDYETVGMLSSPSEGQSYASQFQGDKALDKQYGSNVRTSVTIVSIVPNGKGIGTVRFAKTTKRTNETGDGETTHWIATIGYQYVNPSLMSESARLTNPLGFNVTSYRVDPEMGVVQ,soluble
8,MNYPMIAGRVFGTPLLVDPVKGAAFLAGLGPRLVNGALELRGLEELAPDRVAEAGRIAPRASVLLDDAGDARREAGRPLYLVEGGVAVIEVTGTLVHRGGWIGQSSGTTSYEGLMAQISAAVADPSVRGIALEIDSYGGEVAGLFDLADAIRAARAVKPVRAFVAEAALSAAYAIASQAERIVLPRTGAVGSIGVLLVHADFSQAMADRGVAVTLIHAGRHKVDGNPYEALPEGVRADLQARVEASRALFAETVAAGRGARLSRQQALATEAQVLDGAAAVAAGLADEVSDLRRAFAAFRAELFDPHLTSPRAGTPAAAKETPTMTDETTTGAARGTAAEGSAPPMETAEGSGGGAPAANVAVAEAAELIEIGQQAARLGLAVDVADAMRRGLSAAALRRTVLDGLAARGDGADLVAHAPTAAAGPKESPLLAAARRTAEAQAASRRA,not soluble
9,MKSAEQWIDELQLESHPEGGFYRETIREVLKDGRRAPFSSIYFLLTDDNISHFHRIDADEVWYYHAGDSLTIHMINPDGEYTTATLGTDIQNGDVLQYVVPKGTIFASSIEFSNTYSLVGCMCQPAFEFKQFELFKQSELITQYPHLKSVIEKYALK,soluble
10,MKSFDGHNDLLARLWLSEHPDPVGMFLKGQLPGHLDFARCQQAQFAGGLFAIFVPPFDYVKNNHPYKLRKSAQAGFDTQDIHHIVFTQLDYIKQIASRSDRRIQICLSVEDIQFCLQQDIMAVVIHLEGAEVLDSEFGVLEQLHARGLRSIGPLWNLPNQFGHGLQASFPHSPDTGLGLTDQGKALIQLCSEKRIMIDVSHMNEKAFWDTAKISELPLIATHSNVHQLCPQPRNLTDAQLEAIQASQGCVGVNFDTAFLRPDGQRNAATSLDLILEHIEYLMHKLGEDQVAFGSDFDGGFISDHLKDVTGLIHLQQAFERRGYSQALQEKLCHQNWLSALQRVWHPAC,not soluble
11,MNEMPVQPTPAPPVDAPSPDGDRDLFGWRVRADLPLPELPVWAGDGRAPDILIRVAAVSPLDDGAQVFSPRIRFIEATLCFDVPDVARYRVDGGHLVTIEAARGIAADAPEIRLFFFGTVLAVLCFRRGLIPLHASAVALDGRALLLSGESGTGKSTLAAALLARGYPLLSDDLCALDVSCPDKPMILPCTAHLKLWGDAAARLGIATDGMTPVRRHLDKFRIPVRSASDAPLGPGTIIRLKRVTRAEQVGTRPLLGAEALCYDLIHRFRLGIALGYQSTMLTALAPLVRSAPIIQLNRRDDLGALPDLADHVIRLARDERRDLEHHHHHH,not soluble
12,DYSQKLQNLISEQLVGCGFNEILNNSLTAASYYEGSETYKNENLVYLMNPLSNDLNVMRQTLLFGGLESIQHNANRKNADLKFFEFGNCYFYNAEKKNPEKVLAAYAEEYHLGLWVTGKRVSNSWAHPDENSSVYELKAYVLNIFTRLGLNFGNVVFGNLTNDIYSTAISVHTRGGKLLATFGIISKKIQKAFDIDNEVYYAEINWKELM,not soluble
13,GPGSMSRTQTSSKSVPKNIAVYCRVRPPVPNEKGHTFQNISYDDSDSRAIAVARKSGTKALEKTYLFNRVFRPTATQKDVYETFAKGAVDAAFDGQHGVLFVYGQTGSGKTFTISNDEPNNEGVLQRSMRDIWNRIASDTANDYSCSVSYVQLYNEILTDLLDDAKGKVRIQMGSEGRGDVVMVSDSTGMAIEREVKDYKSTMACFQVGLARKEMASTSMNSTSSRSHTIFTLNIVKAKKVVAVTVGTEAEGPTIALEGRLVLCDLAGSERVSKTHAEGKTLDEATHINRSLLTLGKVVTALTDNAQHAPFRESKLTRILQYSLMGNGNTSIIVNISPSDDNTEESLSAILFGQRASQIKQDAKRHEVLDYKALYMQLMAELDNKNDKTLEEALEEERGVYEERISALDEEMKLLSDENAMLRNENKQLRQYVPADRLKLIDETPSSGVSGANGEVVSGGWAKVNQDLRKLVQQRDERLKVISDERVRLALVVAEEKRKCFQLAQKMRSFAMRYKMEREQSTQRQEELCTELATLKGTDYLSAVGSFDATASPGSPNYPRENEEFNDAESAQAQIRALRAERMELMVYQAKAANAIRKLVKERDAAQRKVA,soluble
14,MIRQTPLEKRYDKLGPHIVTALKKRYFDAYYCKTRNEALQQILDLIPQNHVVSWGGSETLKEMGVQTAVREKGFKVIDRDLAKTPEERTEIMRQALLCDTFLMSSNAISEDGQLFNIDGNGNRVAAMIFGPKNVIVVAGMNKIVKNIDDAIQRTRTVASPAVVQRFQDVNTPCYINGSCIDCTSPESICAYMVTTRISRPAKKIKVILVGENLGLLEHHHHHH,soluble
15,MPHVLVLNASYEPLGVVPLRRALVLVLENKAVCLEESGAFMHSATVTVPAPSVVRLKRFVRVPYRGPVPLTRRALFARDGGRCMYCGGVATSVDHVIPRSRGGQHAWDNVVASCRRCNHVKADRHLFEIGWRLRHKPAPPTGLAWRIIGTGHRDPRWLPYLQPYGADDAMARIDGISAAAALEHHHHHH,not soluble
16,SPGRSSTSSGSTRYISFSGIESALSSLKNFQSCISSGMDTVSSVALDLVETQTEVSSEYSMDKAMVEFAKMDRELSHYVKAVQSTINHVKEERPEKVPDLKLLVEKKFLALQDKNSDADFKENEKFVQFKQQLRELKKQYGIHADRENDLTEGVDEDMIVTQSQTNFICPITQLEMKKPVKNKMCGHTYEEEAIVRMIESKHKRKKKACCPKIGCSHTDMRMSDLIPDEALRRAIESHNKKKKRHSE,soluble
17,MTLYIGMNNTSGKAITDIDHLRQSVRDILLTPQGSRIARREYGSLLSALIDQPQNPALRLQVMSAVYVALSRWEPRLTLDSITINSHFDGSMVVELAGRRNNGVPVSLSVSTGAENGSD,not soluble
18,MGSDKIHHHHHHMKDVQNEKDPRMVPLKKVGIKDLHWPLKVILKEDGYQSTVAQISCSVDLHREKRGIHMSRFIEVLNKLEVITPQIFEEILDDLIEIMEAKRAHLEIHFPYFIWKESPVSRKKSPLKVDCFVEAEKEKNFSFKIGVRTPVHTLCPCSKEISDYGAHNQRAFVEITVKTRKFIWFEDLVEIAEKNASSPLYTLLKRPDEKFVTEKAYENPRFVEDVARDVALELEKDPRITWYRVYVESMESIHNHNAFACVEKGDFVLEG,not soluble
19,GPLGSKEQGVVRKAGWLFFKPLVTLQKERKLELVARRKWKQYWVTLKGCTLLFYETYGKNSTEQNSAPRCALFAEDSIVQSVPEHPKKEHVFCLSNSCGDVYLFQATSQTDLENWVTAIHSACASLFAKKHGKEDTVRLLKSQTRSLLQKIDMDSKMKKMAELQLSVVSDPKNRKAIENQIRQWEQNLEKFHMDLFRMRCYLASLQGGELPNPKSLLAATSRPSKLALGRLGVLSVSSFHALVCSRDDSTLRKRTLSLTQRGK,soluble
20,WSAEDKHKEGVNSHLWIVNRAIDIMSRNTTLVKQDRVAQLNEWRTELENGIYAANYENPYYDNSTFASHFYDPDNGKTYIPFAKQAKETGAKYFKLAGESYKNKDMKQAFFYLGLSLHYLGDVNQPMHAANFTNLSYPQGFHSKYENFVDTIKDNYKVTDGNGYWNWKGTNPEEWIHGAAVVAKQDYSGIVNDNTKDWFVKAAVSQEYADKWRAEVTPMTGKRLMDAQRVTAGYIQLWFDTYGDR,soluble
21,MRYADRVTFVKTTDEQYNPDLGEYTHTEVISITKPCFVMDMGMEKSVQIFGDYQKDRKVIYLKQPYTKAFDYCEYEGRRYKTQANKLGAIVFYLEGDDSIGG,not soluble
